# *1 amine or outer side, *2 acyl side, *3 side chain or, on linkers, in order; H or OH if unused. Bridges are numbered along the chain shown (N, C = ends). Where no end group is shown, it is not given here. [ ]: non-standard residue; d: D form. The star is where a group is joined. Trp(7-aza) = N[C@@H](Cc1c[nH]c2ncccc12)C(=O)O; NMePhe(4-F) = CN[C@@H](Cc1ccc(F)cc1)C(=O)O; mXylylene = c1cc(C[*:1])cc(C[*:2])c1; NMeY = CN[C@@H](Cc1ccc(O)cc1)C(=O)O; dPhg = N[C@@H](C(=O)O)c1ccccc1; NMeK = CN[C@@H](CCCCN)C(=O)O; Phg = N[C@H](C(=O)O)c1ccccc1; Tle = CC(C)(C)[C@H](N)C(=O)O; NMeS = CN[C@@H](CO)C(=O)O; NMeA = CN[C@@H](C)C(=O)O; Orn = NCCC[C@H](N)C(=O)O; Pra = C#CC[C@H](N)C(=O)O; Nva = CCC[C@H](N)C(=O)O; PEG2 = NCCOCCOCCC(=O)O; AEEA = NCCOCCOCC(=O)O; Acryloyl = C=CC(=O)*; Ava = NCCCCC(=O)O; Sar = CNCC(=O)O
# B1: R4115 (peptide)
# peptide: Ac-[Nva]CY[Tle]KH[NMeA][Phg]WY[NMePhe(4-F)][Sar]C-NH2
# modifications: linker 2-13 via mXylylene
# SMILES: CCC[C@H](NC(C)=O)C(=O)N[C@H]1CSCc2cccc(c2)CSC[C@@H](C(N)=O)NC(=O)CN(C)C(=O)[C@H](Cc2ccc(F)cc2)N(C)C(=O)[C@H](Cc2ccc(O)cc2)NC(=O)[C@H](Cc2c[nH]c3ccccc23)NC(=O)[C@H](c2ccccc2)NC(=O)[C@H](C)N(C)C(=O)[C@H](Cc2c[nH]cn2)NC(=O)[C@H](CCCCN)NC(=O)[C@H](C(C)(C)C)NC(=O)[C@H](Cc2ccc(O)cc2)NC1=O
# B2: R4117 (peptide)
# peptide: Ac-[Nva]C[NMeY][Tle]KH[NMeA][Phg][Trp(7-aza)]Y[NMePhe(4-F)][Sar]C-NH2
# modifications: linker 2-13 via mXylylene
# SMILES: CCC[C@H](NC(C)=O)C(=O)N[C@H]1CSCc2cccc(c2)CSC[C@@H](C(N)=O)NC(=O)CN(C)C(=O)[C@H](Cc2ccc(F)cc2)N(C)C(=O)[C@H](Cc2ccc(O)cc2)NC(=O)[C@H](Cc2c[nH]c3ncccc23)NC(=O)[C@H](c2ccccc2)NC(=O)[C@H](C)N(C)C(=O)[C@H](Cc2c[nH]cn2)NC(=O)[C@H](CCCCN)NC(=O)[C@H](C(C)(C)C)NC(=O)[C@H](Cc2ccc(O)cc2)N(C)C1=O
# B3: R4118 (peptide)
# peptide: Ac-[Nva]CY[Tle]KH[NMeA][Phg][Trp(7-aza)]Y[NMePhe(4-F)][NMeS]C-NH2
# modifications: linker 2-13 via mXylylene
# SMILES: CCC[C@H](NC(C)=O)C(=O)N[C@H]1CSCc2cccc(c2)CSC[C@@H](C(N)=O)NC(=O)[C@H](CO)N(C)C(=O)[C@H](Cc2ccc(F)cc2)N(C)C(=O)[C@H](Cc2ccc(O)cc2)NC(=O)[C@H](Cc2c[nH]c3ncccc23)NC(=O)[C@H](c2ccccc2)NC(=O)[C@H](C)N(C)C(=O)[C@H](Cc2c[nH]cn2)NC(=O)[C@H](CCCCN)NC(=O)[C@H](C(C)(C)C)NC(=O)[C@H](Cc2ccc(O)cc2)NC1=O
# B4: R4120 (peptide)
# peptide: Ac-[Nva]CY[Tle]KH[NMeA][Phg][Trp(7-aza)]Y[NMePhe(4-F)][Sar]CGGGCAIL-NH2
# modifications: linker 2-13 via mXylylene
# SMILES: CCC[C@H](NC(C)=O)C(=O)N[C@H]1CSCc2cccc(c2)CSC[C@@H](C(=O)NCC(=O)NCC(=O)NCC(=O)N[C@@H](CS)C(=O)N[C@@H](C)C(=O)N[C@H](C(=O)N[C@@H](CC(C)C)C(N)=O)[C@@H](C)CC)NC(=O)CN(C)C(=O)[C@H](Cc2ccc(F)cc2)N(C)C(=O)[C@H](Cc2ccc(O)cc2)NC(=O)[C@H](Cc2c[nH]c3ncccc23)NC(=O)[C@H](c2ccccc2)NC(=O)[C@H](C)N(C)C(=O)[C@H](Cc2c[nH]cn2)NC(=O)[C@H](CCCCN)NC(=O)[C@H](C(C)(C)C)NC(=O)[C@H](Cc2ccc(O)cc2)NC1=O
# B5: R4121 (peptide)
# peptide: Ac-[Nva]CY[Tle]KH[NMeA][dPhg][Trp(7-aza)]Y[NMePhe(4-F)][NMeA]C-NH2
# modifications: linker 2-13 via mXylylene
# SMILES: CCC[C@H](NC(C)=O)C(=O)N[C@H]1CSCc2cccc(c2)CSC[C@@H](C(N)=O)NC(=O)[C@H](C)N(C)C(=O)[C@H](Cc2ccc(F)cc2)N(C)C(=O)[C@H](Cc2ccc(O)cc2)NC(=O)[C@H](Cc2c[nH]c3ncccc23)NC(=O)[C@@H](c2ccccc2)NC(=O)[C@H](C)N(C)C(=O)[C@H](Cc2c[nH]cn2)NC(=O)[C@H](CCCCN)NC(=O)[C@H](C(C)(C)C)NC(=O)[C@H](Cc2ccc(O)cc2)NC1=O
# B6: R4122 (peptide)
# peptide: Ac-[Nva]CY[Tle]A[Orn](Acryloyl)[NMeA][Phg][Trp(7-aza)]Y[NMePhe(4-F)][Sar]C-NH2
# modifications: linker 2-13 via mXylylene
# SMILES: C=CC(=O)NCCC[C@@H]1NC(=O)[C@H](C)NC(=O)[C@H](C(C)(C)C)NC(=O)[C@H](Cc2ccc(O)cc2)NC(=O)[C@@H](NC(=O)[C@H](CCC)NC(C)=O)CSCc2cccc(c2)CSC[C@@H](C(N)=O)NC(=O)CN(C)C(=O)[C@H](Cc2ccc(F)cc2)N(C)C(=O)[C@H](Cc2ccc(O)cc2)NC(=O)[C@H](Cc2c[nH]c3ncccc23)NC(=O)[C@H](c2ccccc2)NC(=O)[C@H](C)N(C)C1=O
# B7: R4123 (peptide)
# peptide: Ac-[Nva]CY[Tle]AK(Acryloyl)[NMeA][Phg][Trp(7-aza)]Y[NMePhe(4-F)][Sar]C-NH2
# modifications: linker 2-13 via mXylylene
# SMILES: C=CC(=O)NCCCC[C@@H]1NC(=O)[C@H](C)NC(=O)[C@H](C(C)(C)C)NC(=O)[C@H](Cc2ccc(O)cc2)NC(=O)[C@@H](NC(=O)[C@H](CCC)NC(C)=O)CSCc2cccc(c2)CSC[C@@H](C(N)=O)NC(=O)CN(C)C(=O)[C@H](Cc2ccc(F)cc2)N(C)C(=O)[C@H](Cc2ccc(O)cc2)NC(=O)[C@H](Cc2c[nH]c3ncccc23)NC(=O)[C@H](c2ccccc2)NC(=O)[C@H](C)N(C)C1=O
# B8: R4124 (peptide)
# peptide: cyclo([PEG2]Y[Tle]KH[NMeA][Phg][Trp(7-aza)]Y[NMePhe(4-F)][Sar])
# SMILES: C[C@H]1C(=O)N[C@@H](c2ccccc2)C(=O)N[C@@H](Cc2c[nH]c3ncccc23)C(=O)N[C@@H](Cc2ccc(O)cc2)C(=O)N(C)[C@@H](Cc2ccc(F)cc2)C(=O)N(C)CC(=O)NCCOCCOCCC(=O)N[C@@H](Cc2ccc(O)cc2)C(=O)N[C@@H](C(C)(C)C)C(=O)N[C@@H](CCCCN)C(=O)N[C@@H](Cc2c[nH]cn2)C(=O)N1C
# B9: R4125 (peptide)
# peptide: Ac-[Nva]CY[Tle]AH[NMeK][Phg][Trp(7-aza)]Y[NMePhe(4-F)][Sar]C-NH2
# modifications: linker 2-13 via mXylylene
# SMILES: CCC[C@H](NC(C)=O)C(=O)N[C@H]1CSCc2cccc(c2)CSC[C@@H](C(N)=O)NC(=O)CN(C)C(=O)[C@H](Cc2ccc(F)cc2)N(C)C(=O)[C@H](Cc2ccc(O)cc2)NC(=O)[C@H](Cc2c[nH]c3ncccc23)NC(=O)[C@H](c2ccccc2)NC(=O)[C@H](CCCCN)N(C)C(=O)[C@H](Cc2c[nH]cn2)NC(=O)[C@H](C)NC(=O)[C@H](C(C)(C)C)NC(=O)[C@H](Cc2ccc(O)cc2)NC1=O
# B10: R4126 (peptide)
# peptide: Ac-[Nva]CY[Tle]KA[NMeA][Phg][Trp(7-aza)]Y[NMePhe(4-F)][Sar]C-NH2
# modifications: linker 2-13 via mXylylene
# SMILES: CCC[C@H](NC(C)=O)C(=O)N[C@H]1CSCc2cccc(c2)CSC[C@@H](C(N)=O)NC(=O)CN(C)C(=O)[C@H](Cc2ccc(F)cc2)N(C)C(=O)[C@H](Cc2ccc(O)cc2)NC(=O)[C@H](Cc2c[nH]c3ncccc23)NC(=O)[C@H](c2ccccc2)NC(=O)[C@H](C)N(C)C(=O)[C@H](C)NC(=O)[C@H](CCCCN)NC(=O)[C@H](C(C)(C)C)NC(=O)[C@H](Cc2ccc(O)cc2)NC1=O
# B11: R4127 (peptide)
# peptide: Ac-[Nva]CY[Tle]KH[NMeA][Phg][Trp(7-aza)]Y[NMePhe(4-F)][Sar]CGGGCVIM-NH2
# modifications: linker 2-13 via mXylylene
# SMILES: CCC[C@H](NC(C)=O)C(=O)N[C@H]1CSCc2cccc(c2)CSC[C@@H](C(=O)NCC(=O)NCC(=O)NCC(=O)N[C@@H](CS)C(=O)N[C@H](C(=O)N[C@H](C(=O)N[C@@H](CCSC)C(N)=O)[C@@H](C)CC)C(C)C)NC(=O)CN(C)C(=O)[C@H](Cc2ccc(F)cc2)N(C)C(=O)[C@H](Cc2ccc(O)cc2)NC(=O)[C@H](Cc2c[nH]c3ncccc23)NC(=O)[C@H](c2ccccc2)NC(=O)[C@H](C)N(C)C(=O)[C@H](Cc2c[nH]cn2)NC(=O)[C@H](CCCCN)NC(=O)[C@H](C(C)(C)C)NC(=O)[C@H](Cc2ccc(O)cc2)NC1=O
# B12: R4128 (peptide)
# peptide: cyclo([Ava]Y[Tle]KH[NMeA][Phg][Trp(7-aza)]Y[NMePhe(4-F)][Sar][Pra])
# SMILES: C#CC[C@@H]1NC(=O)CN(C)C(=O)[C@H](Cc2ccc(F)cc2)N(C)C(=O)[C@H](Cc2ccc(O)cc2)NC(=O)[C@H](Cc2c[nH]c3ncccc23)NC(=O)[C@H](c2ccccc2)NC(=O)[C@H](C)N(C)C(=O)[C@H](Cc2c[nH]cn2)NC(=O)[C@H](CCCCN)NC(=O)[C@H](C(C)(C)C)NC(=O)[C@H](Cc2ccc(O)cc2)NC(=O)CCCCNC1=O
# B13: R4130 (peptide)
# peptide: cyclo([AEEA]Y[Tle]KH[NMeA][Phg][Trp(7-aza)]Y[NMePhe(4-F)][Sar][Pra])
# SMILES: C#CC[C@@H]1NC(=O)CN(C)C(=O)[C@H](Cc2ccc(F)cc2)N(C)C(=O)[C@H](Cc2ccc(O)cc2)NC(=O)[C@H](Cc2c[nH]c3ncccc23)NC(=O)[C@H](c2ccccc2)NC(=O)[C@H](C)N(C)C(=O)[C@H](Cc2c[nH]cn2)NC(=O)[C@H](CCCCN)NC(=O)[C@H](C(C)(C)C)NC(=O)[C@H](Cc2ccc(O)cc2)NC(=O)COCCOCCNC1=O
# Target: GMPPNP-loaded H-Ras or GTP-loaded K-Ras
# Assay: FP competition, displacement of probe R4007 from Ras
row,IC50 [nM],Binder
1,34.1,B1
2,35.7,Ac-[Nva]CY[Tle]KH[NMeA][Phg][Trp(7-aza)]Y[NMePhe(4-F)][Sar]CGCMSCKCVLS-NH2 (linker 2-13 via mXylylene; cysteine pairing not given here) [R4116]
3,48.3,B2
4,51.5,B3
5,64.4,Ac-[Nva]CY[Tle]KH[NMeA][Phg][Trp(7-aza)]Y[NMePhe(4-F)][Sar]CGCGVGIM (linker 2-13 via mXylylene) [R4119]
6,65.7,B4
7,73,B5
8,77.1,B6
9,85,B7
10,88.4,B8
11,110,B9
12,127,B10
13,148,B11
14,215,B12
15,227,Ac-[Nva]C[NMeY][Tle]KH[NMeA][Phg][Trp(7-aza)]Y[NMePhe(4-F)][Sar]C[dS][dA]K[Cys(StBu)]VIM (linker 2-13 via mXylylene) [R4129]
16,268,B13
17,278,Ac-[Nva]CY[Tle]KH[NMeA][Phg][Trp(7-aza)]Y[NMePhe(4-F)][Sar]CGGGCVIM (linker 2-13 via mXylylene) [R4131]

# Reference: patent US20190119358A1
